Measured values published in patent US10040826.

How the values were obtained:
[1] = target: A244 gp120 (no modifications) (HIV-1); assay: SPR, Fab amine-coupled to the sensor surface, gp120 flowed
[2] = target: A244 gDΔ11 gp120 (Herpes simplex virus; HIV-1); assay: as above
[3] = target: A244 gDΔ11 gp120 (Herpes simplex virus; HIV-1); assay: Kd table; row AE.A244 gp120, column A32 gD+; method not given
[4] = target: A244-rgp120 (RV144 vaccine immunogen) (Herpes simplex virus; HIV-1); assay: SPR; A32 captured on anti-Fc surface, RV144 A244-rgp120 injected at 0.5-5 µg/mL; fitted curves [lower row]
[5] = target: MN gDΔ11 gp120 (Herpes simplex virus; HIV-1); assay: Kd table; row B.MN gp120, column A32 gD+; method not given
[6] = target: A244 Δ11 gp120 (HIV-1); assay: SPR blocking on immobilized A244 Δ11 gp120, mAb injected to near saturation, then RV144 vaccinee IgG; against 7B2 control
[7] = target: A244 gDΔ11 gp120 (Herpes simplex virus; HIV-1); assay: SPR
[8] = target: A244 Δ11 gp120 (HIV-1); assay: SPR
[9] = target: 92TH023 gp120 (no modifications) (HIV-1); assay: Kd table; row AE.92TH023 gp120, column A32 gD-; method not given
[10] = target: A244 gp120 (no modifications) (HIV-1); assay: SPR, mAb captured on anti-Fc surface, monomeric gp120 as analyte
[11] = target: A244 gDΔ11 gp120 (Herpes simplex virus; HIV-1); assay: as above
[12] = target: A244 Δ11 gp120 (HIV-1); assay: as above
[13] = target: A244 Δ11 gp120 (HIV-1); assay: SPR; A244 gp120 gD- Δ11 293T monomer batch 110608 flowed over immobilised A32; response axis in RU
[14] = target: MN-rgp120 (RV144 vaccine immunogen) (Herpes simplex virus; HIV-1); assay: SPR; A32 captured on anti-Fc surface, RV144 MN-rgp120 injected at 0.5-5 µg/mL; fitted curves
[15] = target: 92TH023 gDΔ11 gp120 (Herpes simplex virus; HIV-1); assay: SPR, not detailed
[16] = target: MN gDΔ11 gp120 (Herpes simplex virus; HIV-1); assay: SPR, not detailed
[17] = target: A244 Δ11 gp120 (HIV-1); assay: SPR; A244 gp120 gD- Δ11 293T monomer batch 110608 flowed over immobilised A32; ratio to ConS gp140
[18] = target: 92TH023 gDΔ11 gp120 (Herpes simplex virus; HIV-1); assay: Kd table; row AE.92TH023 gp120, column A32 gD+; method not given
[19] = target: MN gp120 (no modifications) (HIV-1); assay: Kd table; row B.MN gp120, column A32 gD-; method not given
[20] = target: A244 gp120 (no modifications) (HIV-1); assay: Kd table; row AE.A244 gp120, column A32 gD-; method not given
[21] = target: A244 gp120 (no modifications) (HIV-1); assay: SPR titration, binding to 697D mAb (697-30D); A244gDneg293Tmon at [5] to [40], unit inferred
[22] = target: 92TH023 gDΔ11 gp120 (Herpes simplex virus; HIV-1); assay: Kd table; row AE.92TH023 gp120, column 697D gD+; method not given
[23] = target: A244 gDΔ11 gp120 (Herpes simplex virus; HIV-1); assay: SPR titration, binding to 697D mAb (697-30D); A244 gD+ monomer at [10] to [40], unit inferred
[24] = target: A244 gDΔ11 gp120 (Herpes simplex virus; HIV-1); assay: SPR titration, binding to 697D mAb (697-30D); A244 gD+ monomer at [10], [20], [30], [40], unit inferred
[25] = target: 92TH023 gp120 (no modifications) (HIV-1); assay: Kd table; row AE.92TH023 gp120, column 697D gD-; method not given
[26] = target: A244-rgp120 (RV144 vaccine immunogen) (Herpes simplex virus; HIV-1); assay: SPR, mAb captured on anti-Fc surface, gp120 as analyte (FIG. 28)
[27] = target: MN-rgp120 (RV144 vaccine immunogen) (Herpes simplex virus; HIV-1); assay: as above
[28] = target: MN gDΔ11 gp120 (Herpes simplex virus; HIV-1); assay: Kd table; row B.MN gp120, column 697D gD+; method not given
[29] = target: A244 Δ11 gp120 (HIV-1); assay: SPR titration, binding to 697D mAb; A244 gDneg D11 at [2] to [50], unit inferred
[30] = target: A244 gp120 (no modifications) (HIV-1); assay: SPR titration, binding to 697D mAb (697-30D); A244gDneg293Tmon at [5], [10], [20], [40], unit inferred; constant labelled ka1
[31] = target: MN gp120 (no modifications) (HIV-1); assay: Kd table; row B.MN gp120, column 697D gD-; method not given
[32] = target: A244 gp120 (no modifications) (HIV-1); assay: SPR titration, binding to 697D mAb (697-30D); A244gDneg293Tmon at [5] to [40], unit inferred; constant labelled kd1
[33] = target: A244 Δ11 gp120 (HIV-1); assay: SPR titration, binding to 697D mAb; A244 gDneg D11 at [2], [4], [6], [10], [25], [50], unit inferred
[34] = target: A244-rgp120 (RV144 vaccine immunogen) (Herpes simplex virus; HIV-1); assay: SPR; 697D captured on anti-Fc surface, RV144 A244-rgp120 injected at 5.0-100 µg/mL; fitted curves [lower row]
[35] = target: A244 gp120 (no modifications) (HIV-1); assay: Kd table; row AE.A244 gp120, column 697D gD-; method not given
[36] = target: A244 gDΔ11 gp120 (Herpes simplex virus; HIV-1); assay: Kd table; row AE.A244 gp120, column 697D gD+; method not given
[37] = target: MN-rgp120 (RV144 vaccine immunogen) (Herpes simplex virus; HIV-1); assay: SPR; 697D captured on anti-Fc surface, RV144 MN-rgp120 injected at 5.0-100 µg/mL; fitted curves
[38] = target: A244 gp120 (no modifications) (HIV-1); assay: SPR

## 697D Fab
[1]
  Kd: 5700 nM
[2]
  Kd: 690 nM
  fold higher affinity than to unmodified A244 gp120: 8 fold
  fold higher ka than to A244 gp120: 10 fold

## C1 mAb A32 (antibody)
[3]
  Kd: 0.13 nM
[4]
  Kd: 1.13 nM
[5]
  Kd: 4.15 nM
[6]
  percent blocking of RV144 vaccinee IgG binding: 66%
[7]
  fold higher affinity than to A244 gp120: 6 fold
[8]
  fold higher affinity than to A244 gp120: 9 fold
[9]
  Kd: 4.6 nM
[10]
  Kd: 6.25 nM
  koff: 0.00047 s⁻¹
  kon: 76800 M⁻¹ s⁻¹
[11]
  Kd: 1 nM
  koff: 0.000133 s⁻¹
  kon: 134000 M⁻¹ s⁻¹
[12]
  Kd: 0.67 nM
  koff: 0.00015 s⁻¹
  kon: 223000 M⁻¹ s⁻¹
[13]
  Req: 2290
[14]
  Kd: 0.21 nM
[15]
  fold enhancement of binding against the unmodified protein: 2 to 3 fold
[16]
  fold enhancement of binding against the unmodified protein: 2 to 3 fold
[17]
  Relative Binding Env/ConS gp140: 5.16
[18]
  Kd: 1.35 nM
[19]
  Kd: 0.8 nM
[20]
  Kd: 2.6 nM

## V2 mAb 697D (antibody)
[21]
  Kd: 1900 nM
[22]
  Kd: 734 nM
[23]
  Kd: 162 nM
  koff: 0.0066 s⁻¹
[24]
  kon: 40000 M⁻¹ s⁻¹
[25]
  Kd: 1310 nM
[7]
  fold higher affinity than to A244 gp120: 10 fold
[8]
  fold higher affinity than to A244 gp120: 10 fold
  fold tighter binding than to A244 gp120 with no modifications: 10 fold
[26]
  Kd: 318 nM
[27]
  Kd: 477 nM
[28]
  Kd: 488 nM
[10]
  Kd: 1470 nM
  koff: 0.007 s⁻¹
  kon: 4900 M⁻¹ s⁻¹
[11]
  Kd: 218 nM
  koff: 0.00524 s⁻¹
  kon: 24900 M⁻¹ s⁻¹
[12]
  Kd: 157 nM
  koff: 0.00518 s⁻¹
  kon: 26800 M⁻¹ s⁻¹
[29]
  Kd: 98.7 nM
  koff: 0.0033 s⁻¹
[30]
  kon: 3400 M⁻¹ s⁻¹
[31]
  Kd: 1070 nM
[15]
  fold enhancement of binding against the unmodified protein: 2 to 3 fold
[16]
  fold enhancement of binding against the unmodified protein: 2 to 3 fold
[32]
  koff: 0.0063 s⁻¹
[33]
  kon: 24700 M⁻¹ s⁻¹
[34]
  Kd: 477 nM
[35]
  Kd: 1000 nM
[36]
  Kd: 180 nM
[37]
  Kd: 318 nM

## V2 mAb 2158 (antibody)
[38]
  fold lower affinity than for A244gDΔ11 and A244Δ11 gp120: 3 fold
[10]
  Kd: 11.2 nM
  koff: 0.00019 s⁻¹
  kon: 16400 M⁻¹ s⁻¹
[11]
  Kd: 3.7 nM
  koff: 0.0001 s⁻¹
  kon: 28700 M⁻¹ s⁻¹
[12]
  Kd: 3.68 nM
  koff: 0.00013 s⁻¹
  kon: 36500 M⁻¹ s⁻¹
